B1: r11_951_TrROS_Hall (parent)
chain: KKKYVIKVYFEDTGKEVEIEAESKEEALEAAKRLAEELGLKIKKVEIYP
B2: EEHEE_rd3_0130 (parent)
chain: TKIIVNGKTFTAPTEEEAQKIAEKLAKKAGLTVHKKNGTFELK

Variants of: B1
Test: folding stability dG (cDNA display proteolysis); higher = more stable
Conditions: PBS, room temperature

Variant | folding stability dG
KKKYVIKVYFEDTGKEVEIEAESKEEALEGAKRLAEELGLKIKKVEIYP | 4.4 kcal/mol
KKKYVIKVYFEDTGKEVEIEAESKEEALESAKRLAEELGLKIKKVEIYP | 4.45 kcal/mol
KKKYVIKVYFEDTGKEVEIEAESKEEALEEAKRLAEELGLKIKKVEIYP | 4.31 kcal/mol
KKKYVIKVYFEDRGKEVEIEAESKEEALEAAKRLAEELGLKIKKVEIYP | 4.66 kcal/mol
KKKYVIKVYFEDQGKEVEIEAESKEEALEAAKRLAEELGLKIKKVEIYP | 4.32 kcal/mol
KKKYVYKVYFEDTGKEVEIEAESKEEALEAAKRLAEELGLKIKKVEIYP | 4.79 kcal/mol
KKKYVMKVYFEDTGKEVEIEAESKEEALEAAKRLAEELGLKIKKVEIYP | 4.46 kcal/mol
KKKYVNKVYFEDTGKEVEIEAESKEEALEAAKRLAEELGLKIKKVEIYP | 1.53 kcal/mol
KKKYVPKVYFEDTGKEVEIEAESKEEALEAAKRLAEELGLKIKKVEIYP | -0.197 kcal/mol
KKKYVIKVYFEDTGKEVEIEAFSKEEALEAAKRLAEELGLKIKKVEIYP | 4.46 kcal/mol
KKKYVIVVYFEDTGKEVEIEAESKEEALEAAKRLAEELGLKIKKVEIYP | 4.1 kcal/mol
KKKYVIKVYFEDTGKEVEIEAESKEEALEAPKRLAEELGLKIKKVEIYP | 3.02 kcal/mol
KKKYVIKVYFEDTGKEVEIEAESKEEALEATKRLAEELGLKIKKVEIYP | 4.01 kcal/mol
KKKYVIKVYFEDTGKEVEIEAESKEEALEAMKRLAEELGLKIKKVEIYP | 4.4 kcal/mol
KKKYVIKVYFEDTGKEVEIEAESKEEALEARKRLAEELGLKIKKVEIYP | 2.47 kcal/mol
KIKYVIKVYFEDTGKEVEIEAESKEEALEAAKRLAEELGLKIKKVEIYP | 4.36 kcal/mol
KCKYVIKVYFEDTGKEVEIEAESKEEALEAAKRLAEELGLKIKKVEIYP | 4.46 kcal/mol
KQKYVIKVYFEDTGKEVEIEAESKEEALEAAKRLAEELGLKIKKVEIYP | 4.34 kcal/mol
KKKYVIKVYFEDTGKEVEFEAESKEEALEAAKRLAEELGLKIKKVEIYP | 4.33 kcal/mol
KKKYVIKVYFEDTGKEVESEAESKEEALEAAKRLAEELGLKIKKVEIYP | 3.56 kcal/mol
KKKYVIKVYFEDTGKEVEIEAESKEEHLEAAKRLAEELGLKIKKVEIYP | 2.78 kcal/mol
KKKYVIKVYFEDTGKEVEIEAESKEEWLEAAKRLAEELGLKIKKVEIYP | 3.93 kcal/mol
KKKYVIKVYFEDTGKEVEIEAESKEEFLEAAKRLAEELGLKIKKVEIYP | 3.8 kcal/mol
KKKYVIKVYFEDTGKEVEIEAESKEEALEAAKRLVEELGLKIKKVEIYP | 4.06 kcal/mol
KKKYVIKVYFEDTGKEVEIEAESKEEALEAAKRLQEELGLKIKKVEIYP | 3.9 kcal/mol
KKKYVIKVYFEDTGKEVEIEAESKEEALEAAKRLAEELGLKIKKVEIYM | 4.69 kcal/mol

Variant | folding stability dG
KKKYVIKVYFEDTGKEVEIEAESKEEALEAAKRLAEELGLKIKKVEIYE | 4.66 kcal/mol
KKKYVIKVYFEDTGKNVEIEAESKEEALEAAKRLAEELGLKIKKVEIYP | 4.44 kcal/mol
KKKYVIKVYFEDTGKEVEIEAESKEEALEAAKRLAEELGLKIKLVEIYP | 4.14 kcal/mol
KKKYVIKVYFEDTGKEVEIEAESKEEALEAAKRLAEHLGLKIKKVEIYP | 4.72 kcal/mol
KKKYVIKVYFEDTGKEVEIEAESKEEALEAAKRLAEELGLMIKKVEIYP | 4.38 kcal/mol
KKKYVIKVYFEDTGKEVEIEAESKEEALEAAKRLAEELGLPIKKVEIYP | 4.25 kcal/mol
KKKYVIKVFFEDTGKEVEIEAESKEEALEAAKRLAEELGLKIKKVEIYP | 4.25 kcal/mol
KKKYVIKVYFEDTGKEVEIEAESKEEALTAAKRLAEELGLKIKKVEIYP | 4.71 kcal/mol
KKKYLIKVYFEDTGKEVEIEAESKEEALEAAKRLAEELGLKIKKVEIYP | 4.13 kcal/mol
KKKYIIKVYFEDTGKEVEIEAESKEEALEAAKRLAEELGLKIKKVEIYP | 4.29 kcal/mol
KKKYVIKVYFEDTRKEVEIEAESKEEALEAAKRLAEELGLKIKKVEIYP | 4.05 kcal/mol
KKKYVIKVYFEDTGKEVEIEAESKEEALEAAKRLAEELGLKIWKVEIYP | 4.81 kcal/mol
KKKYVIKVYFEDTGKEVEIEAESKEEALEAAKRLAEELGLKINKVEIYP | 4.29 kcal/mol
KKKYVIKVYFEDTGKEVEIEAESKEEALEAAKRLAEELGLKIHKVEIYP | 4.33 kcal/mol
KKKYVIKVYFEDTGKEVEIEAESKEEALEAAKRLAEELGLKILKVEIYP | 4.36 kcal/mol
KKKYVIKVYFEDTGKEVEIEAESKEEALEAAKRLAEELGLKIGKVEIYP | 4.25 kcal/mol
KKKYVIKVYFEDTGKEVEIEAESKEEALEAAKRLAGELGLKIKKVEIYP | 4.6 kcal/mol
KKKYVIKVYFEDTGKEVEIEAESKEEALEAAKRLAAELGLKIKKVEIYP | 4.62 kcal/mol
KKKYVIKVYFEDTGKEVEIEAESKEEALEAAKRLAMELGLKIKKVEIYP | 4.66 kcal/mol
KKQYVIKVYFEDTGKEVEIEAESKEEALEAAKRLAEELGLKIKKVEIYP | 4.28 kcal/mol
KKKYVIKVYFEDTGKEVEIEAESKEEALEAAKREAEELGLKIKKVEIYP | 3.68 kcal/mol
KKKYVIKVYFEDTGKEVEIEAESKEEALEAAKRGAEELGLKIKKVEIYP | 3.15 kcal/mol
KKKYVIKVYFEDTGKEVEIEAESKEEALEAAKRPAEELGLKIKKVEIYP | 1.34 kcal/mol
KKKYVIKVYFEDTGKEVEIEAESKEEALEAAKRLAEELGLKIKKQEIYP | 3.87 kcal/mol
KKKYVIKVYFEDTGKEVEIEAESKEEALEAAKRLAEELGLKIKKHEIYP | 4.08 kcal/mol
KKKYVIKVYFEDTGKEVEIEAESKEEALEAAKRLAEELGLKIKKVSIYP | 4.33 kcal/mol

Variant | folding stability dG
KKKYVIKVYFEDTGKEVEIEAESKEEALEAAKRLAEELGLKIKKVVIYP | 4.66 kcal/mol
KKKYVIKVYFEDTGKEVEIEAESKEEALEAAKRLAEELGLKIKKVMIYP | 4.49 kcal/mol
KKKYVIKVYFEDTGKEVEIEAESKEEALEAAKRLAEELGLKIKKVESYP | 4.24 kcal/mol
KKKYVIKVYFYDTGKEVEIEAESKEEALEAAKRLAEELGLKIKKVEIYP | 4.83 kcal/mol
KKKYVIKVYFADTGKEVEIEAESKEEALEAAKRLAEELGLKIKKVEIYP | 4.58 kcal/mol
KKKYVIKVYFGDTGKEVEIEAESKEEALEAAKRLAEELGLKIKKVEIYP | 4.49 kcal/mol
KKKYVIKVYFEDTGKEVEIEAESKEEALEAAKCLAEELGLKIKKVEIYP | 4.17 kcal/mol
KKKYVIKVYFEDTGKEVEIEAESKEEALEAAKHLAEELGLKIKKVEIYP | 4.18 kcal/mol
KKKYVIKVYFEDTGKEVEIEAESKEEALEAAKRLAEELELKIKKVEIYP | 4.18 kcal/mol
KKKYVIKVYFEDTGKEVEIEAESKEEALEAAKRLAEELPLKIKKVEIYP | 2.73 kcal/mol
SKKYVIKVYFEDTGKEVEIEAESKEEALEAAKRLAEELGLKIKKVEIYP | 4.25 kcal/mol
DKKYVIKVYFEDTGKEVEIEAESKEEALEAAKRLAEELGLKIKKVEIYP | 4.22 kcal/mol
KKKYVIKVYFEDTGKEVEIEAESKEEALEAAARLAEELGLKIKKVEIYP | 4.44 kcal/mol
KKKYVIKVYFEDTGKEVEIEAESKEEALEAARRLAEELGLKIKKVEIYP | 4.26 kcal/mol
KKKYVIKVYFEDTGKEVEIEEESKEEALEAAKRLAEELGLKIKKVEIYP | 4.25 kcal/mol
KKKYVIKVYFEDTGKEVEIEPESKEEALEAAKRLAEELGLKIKKVEIYP | 2.03 kcal/mol
KKKYVIKVYFEDTGKEVEIESESKEEALEAAKRLAEELGLKIKKVEIYP | 4.7 kcal/mol
KKKYVIKVYFEDTGKEVEIEAESKEEAEEAAKRLAEELGLKIKKVEIYP | 4.28 kcal/mol
KKKYVIKVYFEDTGKEVEIEAESKEEAGEAAKRLAEELGLKIKKVEIYP | 4.17 kcal/mol
KKKYVIKVYFEDTGKEVEIEAESKEEADEAAKRLAEELGLKIKKVEIYP | 4.11 kcal/mol
KKKYVIKVYFEDTGKEVEIEAESKEHALEAAKRLAEELGLKIKKVEIYP | 4.5 kcal/mol
KKKYVIKVYFEDTGKEVEIEAESKEWALEAAKRLAEELGLKIKKVEIYP | 4.92 kcal/mol
KKKYVIKVYFEDTGKEVEIEAESKERALEAAKRLAEELGLKIKKVEIYP | 4.39 kcal/mol
KKKYVIKVYFEDTGLEVEIEAESKEEALEAAKRLAEELGLKIKKVEIYP | 4.28 kcal/mol
KKKYVIKVYFEDTGDEVEIEAESKEEALEAAKRLAEELGLKIKKVEIYP | 4.17 kcal/mol
KKKYVIKVYFEDTGHEVEIEAESKEEALEAAKRLAEELGLKIKKVEIYP | 4.54 kcal/mol

Variant | folding stability dG
KKKYVIKVYFEDTGKEVEIEAESFEEALEAAKRLAEELGLKIKKVEIYP | 4.32 kcal/mol
KKKYVIKVYFEDTGKEVEIEAESEEEALEAAKRLAEELGLKIKKVEIYP | 4.54 kcal/mol
KKKYVIKVYFEDTGKEVEIEAESKEEALEAAKRLAEELGLKIKKVEIGP | 4.33 kcal/mol
KKKYVIKVYFEDTGKEVEIEAESKEEALEAAKRLAEELGLKIKKVEIFP | 4.64 kcal/mol
KKKYVIKVYFEDTGKEVEIEAESKEEALEAAKRLAEELGLKIKKVEIDP | 4.13 kcal/mol
KKKYVIKVYFEDTGKEVEIEAESKEEALEAAKRLAEELGLKAKKVEIYP | 3.21 kcal/mol
KKKYVIKVYFEDTGKEMEIEAESKEEALEAAKRLAEELGLKIKKVEIYP | 4.28 kcal/mol
KKKYVIKVYFEDTGKEFEIEAESKEEALEAAKRLAEELGLKIKKVEIYP | 4.42 kcal/mol
KKKYVIKVYFEDTGKESEIEAESKEEALEAAKRLAEELGLKIKKVEIYP | 4.23 kcal/mol
KKKYVIKVYFEDTGKEAEIEAESKEEALEAAKRLAEELGLKIKKVEIYP | 4.23 kcal/mol
KKKYVIKVYFEDTGKEVLIEAESKEEALEAAKRLAEELGLKIKKVEIYP | 4.46 kcal/mol
KKKYVIKVYFEDTGKEVPIEAESKEEALEAAKRLAEELGLKIKKVEIYP | 3.84 kcal/mol
KKKYVIKVYFEDTGKEVAIEAESKEEALEAAKRLAEELGLKIKKVEIYP | 4.14 kcal/mol
KKKYVIKVYFEDTGKEVEIEAESKEEALEAAKRLAEEWGLKIKKVEIYP | 4.52 kcal/mol
KKKYVIKVYFEDTGKEVEIEAESKEEALEAAKRLAEEYGLKIKKVEIYP | 4.53 kcal/mol
KKKYVIKVYFENTGKEVEIEAESKEEALEAAKRLAEELGLKIKKVEIYP | 4.42 kcal/mol
KKKYVIKVYFEWTGKEVEIEAESKEEALEAAKRLAEELGLKIKKVEIYP | 4.75 kcal/mol
KKKYVIKVYFESTGKEVEIEAESKEEALEAAKRLAEELGLKIKKVEIYP | 4.38 kcal/mol
KKKYVIKVYFEDTGKEVEIYAESKEEALEAAKRLAEELGLKIKKVEIYP | 4.56 kcal/mol
KKKYVIKVYFEDTGKEVEIMAESKEEALEAAKRLAEELGLKIKKVEIYP | 4.42 kcal/mol
KKKYVIKVYFEDTGKEVEITAESKEEALEAAKRLAEELGLKIKKVEIYP | 4.4 kcal/mol
KKKYVIKWYFEDTGKEVEIEAESKEEALEAAKRLAEELGLKIKKVEIYP | 4.03 kcal/mol
KKKYVIKVYFEDTGKEVEIEAEEKEEALEAAKRLAEELGLKIKKVEIYP | 4.22 kcal/mol
KKKYVIKVYFEDTGKEVEIEAEDKEEALEAAKRLAEELGLKIKKVEIYP | 4.31 kcal/mol

Variants of: B2
Test: as above
Conditions: PBS, room temperature

Variant | folding stability dG
CKIIVNGKTFTAPTEEEAQKIAEKLAKKAGLTVHKKNGTFELK | 0.97 kcal/mol
DKIIVNGKTFTAPTEEEAQKIAEKLAKKAGLTVHKKNGTFELK | -0.934 kcal/mol
AKIIVNGKTFTAPTEEEAQKIAEKLAKKAGLTVHKKNGTFELK | 0.581 kcal/mol
EKIIVNGKTFTAPTEEEAQKIAEKLAKKAGLTVHKKNGTFELK | -0.989 kcal/mol

Reference: the MegaScale stability set (Tsuboyama et al. 2023)
